The results in this text go back to publication PMC5087089, “Reconstituted B cell receptor signaling reveals carbohydrate-dependent mode of activation” (Scientific Reports, 2016).

In the experiment the target is T1, wildtype (WT) HA trimer from A/New Caledonia/20/1999 (H1 1999 NC), soluble trimeric format (influenza A virus A/New …, UniProt Q6WG00).
T1 construct: also called wildtype HA
Description: ELISA. The settings on record: both partners purified.

B1: CH65, HA receptor binding site specific monoclonal antibody (antibody, V domains shown)
VH: EVQLVQSGAEVKKPGASVKVSCKASGYTFTDYHINWVRQAPGQGLEWMGWIHPNSGDTNYAQKFQGWVTMTRDTAISTAYMEVNGLKSDDTAVYYCARGGLEPRSVDYYYYGMDVWGQGTTVTVSS
VL: SVLTQPPSVSVAPGQTARITCGGNDIGRKSVHWNQQKPGQAPVLVVCYDSDRPSGIPERFSGSNSGNTATLTISRVEAGDEADYYCQVWDSSSDHVIFGGGTKLTVL
B1: the binding result is “binds”.
